Measurements as given in the supplement of paper PMC10567573.

B1: ATL3 (parent)
chain: QELEEEIKELYENFCKHNGSKNVF
B2: CHIT1 (parent)
chain: CSWKGATKQRIQDQKVPYIFRDNQ

Variants of: B1
Assay: protein stability index of a GFP-peptide fusion (GPS, HEK-293T) (PSI 1-6); higher = more stable
Settings: c terminus: a fixed tail appended
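Further: lentivirally expressed fusions sorted by FACS into six bins by GFP to DsRed ratio, PSI derived from sequencing read proportions per bin multiplied by bin number.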

Variant	protein stability index
QELEEVIKELYENFCKHNGSKNVF [E6V]	2.08
QELEEQIKELYENFCKHNGSKNVF [E6Q]	3.18
QELEEAIKELYENFCKHNGSKNVF [E6A]	2.13
QELEEIIKELYENFCKHNGSKNVF [E6I]	1.78
QELEEDIKELYENFCKHNGSKNVF [E6D]	3.59
QELEEWIKELYENFCKHNGSKNVF [E6W]	1.75
QELEELIKELYENFCKHNGSKNVF [E6L]	1.75
QELEEPIKELYENFCKHNGSKNVF [E6P]	3.28
QELEERIKELYENFCKHNGSKNVF [E6R]	2.77
QELEETIKELYENFCKHNGSKNVF [E6T]	2.86
QELEESIKELYENFCKHNGSKNVF [E6S]	2.85
QELEECIKELYENFCKHNGSKNVF [E6C]	2.32
QELEEHIKELYENFCKHNGSKNVF [E6H]	3
QELEEYIKELYENFCKHNGSKNVF [E6Y]	2.37
QELEEFIKELYENFCKHNGSKNVF [E6F]	1.93
QELEEMIKELYENFCKHNGSKNVF [E6M]	2.19
QELEENIKELYENFCKHNGSKNVF [E6N]	3.29
QELEEGIKELYENFCKHNGSKNVF [E6G]	3.09
QELEEKIKELYENFCKHNGSKNVF [E6K]	2.48
VELEEEIKELYENFCKHNGSKNVF [Q1V]	2.08
KELEEEIKELYENFCKHNGSKNVF [Q1K]	2.31
AELEEEIKELYENFCKHNGSKNVF [Q1A]	2.22
TELEEEIKELYENFCKHNGSKNVF [Q1T]	3.19
RELEEEIKELYENFCKHNGSKNVF [Q1R]	2.31
WELEEEIKELYENFCKHNGSKNVF [Q1W]	2.03
DELEEEIKELYENFCKHNGSKNVF [Q1D]	3.13

Variant	protein stability index
CELEEEIKELYENFCKHNGSKNVF [Q1C]	2.69
MELEEEIKELYENFCKHNGSKNVF [Q1M]	2.46
LELEEEIKELYENFCKHNGSKNVF [Q1L]	1.76
IELEEEIKELYENFCKHNGSKNVF [Q1I]	1.42
SELEEEIKELYENFCKHNGSKNVF [Q1S]	3.41
YELEEEIKELYENFCKHNGSKNVF [Q1Y]	2.2
GELEEEIKELYENFCKHNGSKNVF [Q1G]	3.31
EELEEEIKELYENFCKHNGSKNVF [Q1E]	3.67
NELEEEIKELYENFCKHNGSKNVF [Q1N]	3.39
PELEEEIKELYENFCKHNGSKNVF [Q1P]	2.83
FELEEEIKELYENFCKHNGSKNVF [Q1F]	2.09
HELEEEIKELYENFCKHNGSKNVF [Q1H]	3.17
QHLEEEIKELYENFCKHNGSKNVF [E2H]	2.62
QSLEEEIKELYENFCKHNGSKNVF [E2S]	2.97
QKLEEEIKELYENFCKHNGSKNVF [E2K]	3.3
QQLEEEIKELYENFCKHNGSKNVF [E2Q]	2.52
QNLEEEIKELYENFCKHNGSKNVF [E2N]	3.65
QWLEEEIKELYENFCKHNGSKNVF [E2W]	1.9
QVLEEEIKELYENFCKHNGSKNVF [E2V]	2.3
QMLEEEIKELYENFCKHNGSKNVF [E2M]	2.54
QALEEEIKELYENFCKHNGSKNVF [E2A]	2.38
QDLEEEIKELYENFCKHNGSKNVF [E2D]	3.03
QCLEEEIKELYENFCKHNGSKNVF [E2C]	2.65
QRLEEEIKELYENFCKHNGSKNVF [E2R]	2.8
QYLEEEIKELYENFCKHNGSKNVF [E2Y]	2.47
QLLEEEIKELYENFCKHNGSKNVF [E2L]	2.21

Variant	protein stability index
QTLEEEIKELYENFCKHNGSKNVF [E2T]	3.43
QFLEEEIKELYENFCKHNGSKNVF [E2F]	2.57
QPLEEEIKELYENFCKHNGSKNVF [E2P]	3.68
QILEEEIKELYENFCKHNGSKNVF [E2I]	2.36
QGLEEEIKELYENFCKHNGSKNVF [E2G]	3.14
QELKEEIKELYENFCKHNGSKNVF [E4K]	2.8
QELAEEIKELYENFCKHNGSKNVF [E4A]	1.97
QELQEEIKELYENFCKHNGSKNVF [E4Q]	1.56
QELDEEIKELYENFCKHNGSKNVF [E4D]	3.62
QELREEIKELYENFCKHNGSKNVF [E4R]	2.66
QELCEEIKELYENFCKHNGSKNVF [E4C]	2.81
QELGEEIKELYENFCKHNGSKNVF [E4G]	3.2
QELYEEIKELYENFCKHNGSKNVF [E4Y]	2.31
QELLEEIKELYENFCKHNGSKNVF [E4L]	2.47
QELSEEIKELYENFCKHNGSKNVF [E4S]	3.01
QELIEEIKELYENFCKHNGSKNVF [E4I]	1.79
QELWEEIKELYENFCKHNGSKNVF [E4W]	2.39
QELTEEIKELYENFCKHNGSKNVF [E4T]	3.34
QELNEEIKELYENFCKHNGSKNVF [E4N]	3.96
QELFEEIKELYENFCKHNGSKNVF [E4F]	2.2
QELVEEIKELYENFCKHNGSKNVF [E4V]	2.26
QELMEEIKELYENFCKHNGSKNVF [E4M]	2.14
QELPEEIKELYENFCKHNGSKNVF [E4P]	3.51
QELHEEIKELYENFCKHNGSKNVF [E4H]	2.12
QEFEEEIKELYENFCKHNGSKNVF [L3F]	3.54
QECEEEIKELYENFCKHNGSKNVF [L3C]	3.71

Variant	protein stability index
QEIEEEIKELYENFCKHNGSKNVF [L3I]	3.14
QEHEEEIKELYENFCKHNGSKNVF [L3H]	4
QEAEEEIKELYENFCKHNGSKNVF [L3A]	4.15
QESEEEIKELYENFCKHNGSKNVF [L3S]	4.62
QEDEEEIKELYENFCKHNGSKNVF [L3D]	4.33
QEYEEEIKELYENFCKHNGSKNVF [L3Y]	2.85
QEPEEEIKELYENFCKHNGSKNVF [L3P]	3.9
QEQEEEIKELYENFCKHNGSKNVF [L3Q]	4.01
QEWEEEIKELYENFCKHNGSKNVF [L3W]	2.21
QEKEEEIKELYENFCKHNGSKNVF [L3K]	4.55
QEEEEEIKELYENFCKHNGSKNVF [L3E]	4.29
QEREEEIKELYENFCKHNGSKNVF [L3R]	4.33
QENEEEIKELYENFCKHNGSKNVF [L3N]	2.42
QETEEEIKELYENFCKHNGSKNVF [L3T]	3.83
QEGEEEIKELYENFCKHNGSKNVF [L3G]	4.49
QEMEEEIKELYENFCKHNGSKNVF [L3M]	3.02
QEVEEEIKELYENFCKHNGSKNVF [L3V]	2.28
QELEEEPKELYENFCKHNGSKNVF [I7P]	4.5
QELEEECKELYENFCKHNGSKNVF [I7C]	4.23
QELEEEEKELYENFCKHNGSKNVF [I7E]	4.94
QELEEEQKELYENFCKHNGSKNVF [I7Q]	4.5
QELEEEAKELYENFCKHNGSKNVF [I7A]	4.55
QELEEEKKELYENFCKHNGSKNVF [I7K]	4.71
QELEEEDKELYENFCKHNGSKNVF [I7D]	4.81
QELEEENKELYENFCKHNGSKNVF [I7N]	4.52
QELEEEMKELYENFCKHNGSKNVF [I7M]	3.8

Variant	protein stability index
QELEEEGKELYENFCKHNGSKNVF [I7G]	4.73
QELEEELKELYENFCKHNGSKNVF [I7L]	3.03
QELEEEHKELYENFCKHNGSKNVF [I7H]	4.28
QELEEEFKELYENFCKHNGSKNVF [I7F]	3.49
QELEDEIKELYENFCKHNGSKNVF [E5D]	3.27
QELEPEIKELYENFCKHNGSKNVF [E5P]	3.85
QELEYEIKELYENFCKHNGSKNVF [E5Y]	1.9
QELEKEIKELYENFCKHNGSKNVF [E5K]	2.21
QELEHEIKELYENFCKHNGSKNVF [E5H]	2.42
QELEREIKELYENFCKHNGSKNVF [E5R]	2.02
QELEMEIKELYENFCKHNGSKNVF [E5M]	2.81
QELEIEIKELYENFCKHNGSKNVF [E5I]	1.8
QELEGEIKELYENFCKHNGSKNVF [E5G]	3.25
QELECEIKELYENFCKHNGSKNVF [E5C]	2.33
QELELEIKELYENFCKHNGSKNVF [E5L]	2.23
QELEWEIKELYENFCKHNGSKNVF [E5W]	1.73
QELEAEIKELYENFCKHNGSKNVF [E5A]	1.96
QELEQEIKELYENFCKHNGSKNVF [E5Q]	1.81
QELENEIKELYENFCKHNGSKNVF [E5N]	2.51
QELESEIKELYENFCKHNGSKNVF [E5S]	2.17
QELEFEIKELYENFCKHNGSKNVF [E5F]	2.27
QELEVEIKELYENFCKHNGSKNVF [E5V]	2.15
QELETEIKELYENFCKHNGSKNVF [E5T]	2.45

Variants of: B2
Assay: as above
Settings: c terminus: a fixed tail appended

Variant	protein stability index
CSWKGATKQRIQDQKVPYIFRDVQ [N23V]	1.67
CSWKGATKQRIQDQKVPYIFRDFQ [N23F]	2.04
CSWKGATKQRIQDQKVPYIFRDAQ [N23A]	2.76
CSWKGATKQRIQDQKVPYIFRDLQ [N23L]	1.89
CSWKGATKQRIQDQKVPYIFRDHQ [N23H]	1.99
CSWKGATKQRIQDQKVPYIFRDIQ [N23I]	2.56
CSWKGATKQRIQDQKVPYIFRDQQ [N23Q]	2.6
CSWKGATKQRIQDQKVPYIFRDWQ [N23W]	1.62
CSWKGATKQRIQDQKVPYIFRDKQ [N23K]	3.05
CSWKGATKQRIQDQKVPYIFRDYQ [N23Y]	2.11
CSWKGATKQRIQDQKVPYIFRDRQ [N23R]	2.82
CSWKGATKQRIQDQKVPYIFRDSQ [N23S]	2.2
CSWKGATKQRIQDQKVPYIFRDEQ [N23E]	2.54
CSWKGATKQRIQDQKVPYIFRDDQ [N23D]	3.53
CSWKGATKQRIQDQKVPYIFRDPQ [N23P]	2.38
CSWKGATKQRIQDQKVPYIFRDCQ [N23C]	1.91
CSWKGATKQRIQDQKVPYIFRDNE [Q24E]	4.3
CSWKGATKQRIQDQKVPYIFRDNW [Q24W]	1.3
CSWKGATKQRIQDQKVPYIFRDNP [Q24P]	2.48
CSWKGATKQRIQDQKVPYIFRDND [Q24D]	3.34
CSWKGATKQRIQDQKVPYIFRDNV [Q24V]	2.16

Variant	protein stability index
CSWKGATKQRIQDQKVPYIFRDNY [Q24Y]	1.61
CSWKGATKQRIQDQKVPYIFRDNS [Q24S]	2.82
CSWKGATKQRIQDQKVPYIFRDNH [Q24H]	2.06
CSWKGATKQRIQDQKVPYIFRDNM [Q24M]	1.92
CSWKGATKQRIQDQKVPYIFRDNL [Q24L]	2.31
CSWKGATKQRIQDQKVPYIFRDNI [Q24I]	2.85
CSWKGATKQRIQDQKVPYIFRDNG [Q24G]	2.18
CSWKGATKQRIQDQKVPYIFRDNF [Q24F]	2.01
CSWKGATKQRIQDQKVPYIFRDNA [Q24A]	2.29
CSWKGATKQRIQDQKVPYIFRDNC [Q24C]	3.02
CSWKGATKQRIQDQKVPYIFRDNT [Q24T]	2.75
CSWKGATKQRIQDQKVPYIFRDNN [Q24N]	2.45
CSWKGATKQRIQDQKVPYIFRDNK [Q24K]	3.16
CSWKGATKQRIQDQKVPYIFYDNQ [R21Y]	2.72
CSWKGATKQRIQDQKVPYIFQDNQ [R21Q]	2.64
CSWKGATKQRIQDQKVPYIFSDNQ [R21S]	3.12
CSWKGATKQRIQDQKVPYIFTDNQ [R21T]	2.99
CSWKGATKQRIQDQKVPYIFNDNQ [R21N]	3.09
CSWKGATKQRIQDQKVPYIFPDNQ [R21P]	3.15
CSWKGATKQRIQDQKVPYIFMDNQ [R21M]	2.44
CSWKGATKQRIQDQKVPYIFWDNQ [R21W]	1.87

Variant	protein stability index
CSWKGATKQRIQDQKVPYIFVDNQ [R21V]	1.96
CSWKGATKQRIQDQKVPYIFRPNQ [D22P]	2.22
CSWKGATKQRIQDQKVPYIFRANQ [D22A]	2.57
CSWKGATKQRIQDQKVPYIFRENQ [D22E]	2.44
CSWKGATKQRIQDQKVPYIFRINQ [D22I]	1.57
CSWKGATKQRIQDQKVPYIFRSNQ [D22S]	2.42
CSWKGATKQRIQDQKVPYIFRKNQ [D22K]	2.42
CSWKGATKQRIQDQKVPYIFRGNQ [D22G]	3.03
CSWKGATKQRIQDQKVPYIFRCNQ [D22C]	1.66
CSWKGATKQRIQDQKVPYIFRFNQ [D22F]	1.35
CSWKGATKQRIQDQKVPYIFRVNQ [D22V]	1.83
CSWKGATKQRIQDQKVPYIFRMNQ [D22M]	2.43
CSWKGATKQRIQDQKVPYIFRQNQ [D22Q]	2.33
CSWKGATKQRIQDQKVPYIFRWNQ [D22W]	1.6
CSWKGATKQRIQDQKVPYIFRRNQ [D22R]	2.66
CSWKGATKQRIQDQKVPYIFRHNQ [D22H]	1.72
CSWKGATKQRIQDQKVPYIFRTNQ [D22T]	2.18
CSWKGATKQRIQDQKVPYIFRLNQ [D22L]	2.06
CSWKGATKQRIQDQKVPYIFRNNQ [D22N]	2.42
